# Experiment: yeast display, Sf9 membrane polyspecificity reagent, FACS + sequencing; frameworks hold sequencing errors
# Method in brief: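 Sorting gates, low and high (top ~1%), were placed on anti-HA fluorescence to track expression and on streptavidin fluorescence to track reagent binding. A clone's polyreactivity label is taken from the gate it came out of. The reagent was 10% biotinylated, detergent-solubilized Sf9 membrane, applied for 1 hour at 4 °C to galactose-induced yeast display cells.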
row,Sequence,polyreactivity (PSR sort gate)
1,QVQLVESGGGLVQAGGSLRLSCAASGSISVVNMGWYRQAPGKERELVASITSSGSTTYADSVKGRFTISRDNAKNTVYLQMNSLKPEDTAVYYCAAVRCRSQPYWYHSMDHWGQGTQVTVSS,low polyreactivity
2,QVQLVESGGGLVQAGGSLRLSCAASGSISVWYVMGWYRPAPGTERELVAAITRSGGSTFYADSVKGRFTISRDNAKNTVYLQMNSLKPEDTAVYYCAADGGVAWGYGYWGQGTQVTVSS,low polyreactivity
3,QVQLVESGGGLVQAGGSLRLSCAASGSISVYNAMGWYRQAPGKERELVAAISWSGGRTSYADSVKGRFTISRDNAKNTVYLQMNSLKPEDTAVYYCAADELTVLWDEDYWGQGTQVTVSS,low polyreactivity
4,QVQLVESGGGLVQAGGSLRLSCAASGSISYPYDMGWYRQAPGKDRELVAAISGSGGRTYYADSLKGRFTLSRDTAKNTVYLQMNSLKPEVTAVYYCAAERGAYRGVTFTYGYWGQGTQVTVSS,high polyreactivity
5,QVQLVESGGGLVQAGGSLRLSCAASGSISYQNAMGWYRQAPGKERELVAAISGDGDSTYYADSVKGRFTISRDNAKNTVYLQMNSLKPEDTAVYYCAAEPNVYFSVFVLFPYDYWGQGTQVTVSS,low polyreactivity
6,QVQLVESGGGLVQAGGSLRLSCAASGSISYTYAMGWYRQATGKERELVASISYSEGITYYADSVKGRFTISRDNAKNTVYLQMNSLKPEDTAVYYCAVEGVYPYYDQSEYDYWGQGTQVTVSS,high polyreactivity
7,QVQLVESGGGLVQAGGSLRLSCAASGSISYVYAMGWYRQAPGKERELFAAISYSDGSTYYADSVKGRFTISRDNAKNTVYLQMISLKPEDTAVYYCAADAVYPFPYYWEYYYWGQGTQVTVSS,high polyreactivity
8,QVQLVESGGGLVQAGGSLRLSCAASGSITYLYAMGSYRQAPGKERELLASITWSGGSTYYADSVKGRFTISRDNAKNTVYLQMNSLKPEDTAVYDCAALYQPFPWTWDGYYWGQGTQVTVSS,low polyreactivity
9,QVQLVESGGGLVQAGGSLRLSCAASGSIVGSYAMGWYRQAPGKERELVAGIRSGGSTYYADSVKGRFTISRDNAKNTVYLQMNSLKPEDTAVYYCAGHEEYWGHGTQVTVSS,low polyreactivity
10,QVQLVESGGGLVQAGGSLRLSCAASGSIVPTYAMGWYRQAPGKERELVAAIRSGSNTYYADSVKGRFTISRDNAKNTVYLQMNSLKPEDTAVYYCNVGPQRKYPGRRTVPFGYWGQGTQVTVSS,low polyreactivity
11,QVQLVESGGGLVQAGGSLRLSCAASGSIYAINVMGWYRQAPGKERDFDAAISVRSGSTYYADSVKGRITISRDNAKNTVYLQMNSLKPEDTAVIYCAARTSRFWRGGGLDYWGQGTQVTGSS,high polyreactivity
12,QVQLVESGGGLVQAGGSLRLSCAASGSIYARNAMGWYRQAPGKERELVAAIRYSGGSTYYADSVKGRFTISRDNAKNTVYLQMNSLKPEDTAVYYCAARWGVFGYYYWGQGTQVTVSS,high polyreactivity
13,QVQLVESGGGLVQAGGSLRLSCAASGSIYDYNTMGWYRQAPGKERELVAAISASGGRTYYADSEKGRFTISRDNAKNTVYLQMNSLKPEDTAVYYCARYYIGYYERFGYDYWGQGTQVTVSS,high polyreactivity
14,QVQLVESGGGLVQAGGSLRLSCAASGSIYFLYAMGWYRQAPGKERELVAAISWSVDRTYYADSVKGRFTISRDNAKNTVYLQMNSLKPEDTAVYYCAAVHWWSSSLRMYYWGQGTQVTVSS,low polyreactivity
15,QVQLVESGGGLVQAGGSLRLSCAASGSIYGRNAMGWYRQAPGKERELFAAISSSGGRTYYADSVKGRFTISRDNAKNTVYLQMNSLKPEDTAVYYCAADASYARYYSQYDYWGQGTQVTVSS,high polyreactivity
16,QVQLVESGGGLVQAGGSLRLSCAASGSIYIVNVMGWYRQAPGKERELVAGITTNGGITYYADSVKGRFTISRDNAKNTVYLQMNSLKPEDTAVYYCATRSGSPSSIEMDYWGQGTQVTVSS,low polyreactivity
